Key:
SRCRP2-11-R = molecular target: T1, SRCRP2-11-R (Homo sapiens, UniProt Q9UGM3, E4R); experiment: EMSA
T1 chain: GRVRVLYRGSW

SRCRP2-11 = molecular target: T2, SRCRP2-11 (Homo sapiens, UniProt Q9UGM3); experiment: EMSA
T2 chain: GRVEVLYRGSW

B1: tdTomato1 siRNA (dsRNA)
RNA 1: UUGGUGUCCACGUAGUAGUAG
RNA 2: CUACUACUACGUGGACACCAA
B1: binds (SRCRP2-11-R); binds (SRCRP2-11).

— paper PMC5514624
